For test [1], the target named is T1, HLA-A*02:01/PRAME antigen (recombinant, … on HLA-A*02:01) (human, Complex biotinylated for SPR capture; site of biotin and any tag not stated, not in the letters.).
T1 construct: also called PRAME target; pMHC
Description: SPR (Biacore 8K), pMHC captured, Fab-scFv analyte. As to the method:
(§1) Recombinantly produced hits in Fab-scFv format, as described in Example 4, were evaluated for their ability to bind HLA-A*02:01/PRAME antigen. Binding characterization was performed by surface plasmon resonance (SPR) using a Biacore™ 8k (Cytiva) device. Briefly, 3000 RU of Biotin CAPture reagent (Cytiva) was immobilized on a Series S Sensor Chip CAP (Cytiva) and the biotinylated ligand HLA-A*02:01/PRAME (SEQ ID NO: 68) was diluted in HPS-EP+ running buffer (TEKNOVA) and captured for 300 s at a flow rate of 2 μL/min at flow cell 2 resulting in a ligand capture level of >100 RU. Subsequently, at least three consecutive analyte injections were performed at suitable concentrations applying the single-cycle-kinetics mode at a flow rate of 30 μL/min with an association time of 90 s and the dissociation time set to >400 s. The chip surface was regenerated according to the manufacturer's instructions. After reference flow cell signal and blank injections subtraction, the data was fit to a 1:1 Langmuir binding model to determine the association rate constant kₐ and dissociation rate constant kd and calculate the equilibrium dissociation constant KD (kd/kₐ), also denoted as affinity, using the Biacore™ Insight Evaluation software.
(§2) The molecular recognition profile of monovalent (Fab-scFv) antigen binding molecules M3076 and M3287 for HLA-A*02:01/PRAME binding (equivalent bivalent (Fab-(scFv)₂) antigen binding molecules are M3167 and M3292, respectively) were determined by SPR measurements with HLA-A*02:01 complexes loaded with PRAME peptide or peptides containing a single amino acid substitution to alanine, arginine or aspartic acid. The kinetic parameters for each HLA-A*02:01 complex loaded with a peptide was determined by SPR, according to the previously described method in Example 5.
A general note: Surface plasmon resonance follows binding to a sensor surface in real time, without labels.

The target of test [2] is HLA-A*02:01 loaded with PRAME peptide G8R (human, pMHC ligand was biotinylated for capture (Example 5); site or tag of biotinylation not disclosed). Description: SPR (Biacore 8K), pMHC captured, Fab-scFv analyte. As to the method:
as §1, §2

For test [3], the target named is HLA-A*02:01 loaded with PRAME peptide H5R (human, Non-covalent three-chain complex; biotinylated for capture on the chip, site or tag of biotinylation not stated.). Kind of test: SPR (Biacore 8K), pMHC captured, Fab-scFv analyte. As to the method: as §1, §2
The target of test [4] is HLA-A*02:01 loaded with PRAME peptide L9R (human, pMHC ligand was biotinylated for capture (Example 5); site or tag of biotinylation not disclosed). Kind of test: SPR (Biacore 8K), pMHC captured, Fab-scFv analyte. The procedure:
as §1, §2

Test [5] addresses HLA-A*02:01 loaded with PRAME peptide Q4R (human, Non-covalent three-chain complex; biotinylated for capture on the chip, site or tag of biotinylation not stated.). Kind of test: SPR (Biacore 8K), pMHC captured, Fab-scFv analyte. As to the method:
as §1, §2

Test [6] deals with HLA-A*02:01 loaded with PRAME peptide I7R (human, pMHC ligand was biotinylated for capture (Example 5); site or tag of biotinylation not disclosed). Kind of test: SPR (Biacore 8K), pMHC captured, Fab-scFv analyte. As to the method: as §1, §2
In test [7] the target is T1, HLA-A*02:01/PRAME antigen (recombinant, …). Description: SPR (Biacore 8K), biotinylated pMHC captured, Fab-scFv analyte, single-cycle kinetics, 1:1 fit. As to the method:
as §1

Test [8] deals with HLA-A*02:01 loaded with PRAME peptide L2A (human, Complex captured as in Example 5 (biotinylated ligand); biotin site or tag not stated, not in the letters.). Kind of test: SPR (Biacore 8K), pMHC captured, Fab-scFv analyte. As to the method:
as §1, §2

The target of test [9] is T1, HLA-A*02:01/PRAME antigen (recombinant, …). Kind of test: SPR (Biacore 8K), pMHC captured, Fab-scFv analyte. As to the method: as §1, §2
The source holds these as a separate data set.

The target of test [10] is HLA-A*02:01 loaded with PRAME peptide H5A (human, Complex captured as in Example 5 (biotinylated ligand); biotin site or tag not stated, not in the letters.). Kind of test: SPR (Biacore 8K), pMHC captured, Fab-scFv analyte. As to the method: as §1, §2
In test [11] the target is HLA-A*02:01 loaded with PRAME peptide G8A (human, Non-covalent three-chain complex; biotinylated for capture on the chip, site or tag of biotinylation not stated.). Kind of test: SPR (Biacore 8K), pMHC captured, Fab-scFv analyte. As to the method: as §1, §2
Test [12] has as its target HLA-A*02:01 loaded with PRAME peptide L9A (human, Non-covalent three-chain complex; biotinylated for capture on the chip, site or tag of biotinylation not stated.). Description: SPR (Biacore 8K), pMHC captured, Fab-scFv analyte. The procedure:
as §1, §2

For test [13], the target named is HLA-A*02:01 loaded with PRAME peptide Q4A (human, Complex captured as in Example 5 (biotinylated ligand); biotin site or tag not stated, not in the letters.). Kind of test: SPR (Biacore 8K), pMHC captured, Fab-scFv analyte. As to the method:
as §1, §2

Test [14] deals with HLA-A*02:01 loaded with PRAME peptide I7A (human, Complex captured as in Example 5 (biotinylated ligand); biotin site or tag not stated, not in the letters.). Kind of test: SPR (Biacore 8K), pMHC captured, Fab-scFv analyte. The procedure: as §1, §2
The target of test [15] is HLA-A*02:01 loaded with PRAME peptide L6A (human, Complex captured as in Example 5 (biotinylated ligand); biotin site or tag not stated, not in the letters.). Description: SPR (Biacore 8K), pMHC captured, Fab-scFv analyte. As to the method:
as §1, §2

Test [16] concerns the target HLA-A*02:01 loaded with PRAME peptide L3A (human, Complex captured as in Example 5 (biotinylated ligand); biotin site or tag not stated, not in the letters.). Kind of test: SPR (Biacore 8K), pMHC captured, Fab-scFv analyte. The procedure:
as §1, §2

The target in test [17] is HLA-A*02:01 loaded with PRAME peptide S1A (human, Complex captured as in Example 5 (biotinylated ligand); biotin site or tag not stated, not in the letters.). Description: SPR (Biacore 8K), pMHC captured, Fab-scFv analyte. As to the method:
as §1, §2

Positions count from the first letter of the chain named.

B1: M3076 (bispecific antibody)
heavy: EVQLVESGGGLVQPGGSLRLSCAASGFTFSTYAMNWVRQAPGKGLEWVGRIRSKYNNYATYYADSVKGRFTISRDDSKNTLYLQMNSLRAEDTAVYYCVRHGNFGDSYVSWFAYWGQGTLVTVSSASTKGPSVFPLAPSSKSTSGGTAALGCLVKDYFPEPVTVSWNSGALTSGVHTFPAVLQSSGLYSLSSVVTVPSSSLGTQTYICNVNHKPSNTKVDKKVEPKSCGGGGSDIQMTQSPSSLSASVGDRVTITCRSSQSVYNNLLGWYQQKPGKAPKLLIYSASTLASGVPSRFSGSGSGTDFTLTISSLQPEDFATYYCQGTYYNGDWYYPFGCGTKVEIKGGGGSGGGGSGGGGSGGGGSQVQLVESGGGSVQPGRSLRLSCAASGFDFSTYGVSWVRQAPGKCLEWIGYIDPVYGSTHYADSVKGRFTISRDNSKNTLYLQMNSLRAEDTASYYCVRDLYAGSSGYYMIYSLWGQGTSVTVSS
light: QAVVTQEPSLTVSPGGTVTLTCGSSTGAVTTSNYANWVQQKPGKSPRGLIGGTNKRAPGVPARFSGSLLGGKAALTISGAQPEDEADYYCALWYSNHWVFGGGTKLTVLGQPKAAPSVTLFPPSSEELQANKATLVCLISDFYPGAVTVAWKADSSPVKAGVETTTPSKQSNNKYAASSYLSLTPEQWKSHRSYSCQVTHEGSTVEKTVAPTECS
notes: Humanized variant of M2638, monovalent Fab-scFv; bivalent equivalent is M3167
Consider B1, for which the Kd (usually a measure of binding affinity in units of concentration) was determined as 0.08 nM in test [1]; 93 nM in test [3]; 1.4 nM in [4]; 0.08 nM in test [5]; 18 nM in test [6]; 0.07 nM in [7]. Also, the Kd in [8] amounted to 0.07 nM; in [9] it was 0.08 nM; in [10], 3 nM; in test [11], 0.77 nM; in test [12], 1.7 nM; in [13], 0.18 nM. Moreover, the Kd was found to be 31 nM in test [14], 15 nM in [15], 0.19 nM in [16] and 0.09 nM in test [17]. In addition, in test [2], the binding result is reported as “no binding”.

B2: M3287 (bispecific antibody)
heavy: B1 heavy with F317S, N328T, M473V
light: B1 light
notes: Humanized variant of M2638, monovalent Fab-scFv; bivalent equivalent is M3292
On to B2, for which the equilibrium dissociation constant (Kd) stood at 0.57 nM in test [1]; 6.1 nM in test [4]; 0.49 nM in [5]; 83 nM in test [6]; 0.57 nM in [7]; 0.62 nM in test [8]. In addition, the Kd in test [9] amounted to 0.57 nM; in [10] it was 16 nM; in [11], 9.8 nM; in [12], 18 nM; in test [13] it was 1.2 nM; in test [14] it was 100 nM. For the same molecule, the Kd in test [15] is 67 nM; in test [16], 1.6 nM; in test [17] it was 1.1 nM. The binding result in test [2] and in test [3] was “no binding” in each case.

The record behind these values is US20250333514A1 (CDR LIFE, published 2025).
